Measured values as given in patent publication US12186374B2 (Sanofi-Aventis Deutschland GmbH, priority 2014, dated 2025).

Assays:
patients with T2DM [1] = assay: Treatment-emergent adverse events incl. serious, fatal, leading to discontinuation (Example 3); details: Safety population
patients with T2DM [2] = assay: Symptomatic hypoglycemia (Example 3)
[3] = on-treatment period, Safety population
[4] = plasma glucose <60 mg/dL [[…]], on-treatment period, Safety population
[5] = plasma glucose ≤70 mg/dL [[…]], on-treatment period, Safety population

## Gly(A21)-Arg(B31)-Arg(B32)-human insulin [Insulin Glargine]
Patients with T2DM [1]; PT
  Number of patients experiencing serious TEAE(s): Hypertension: 1
  Number of patients experiencing serious TEAE(s): Hypoglycaemia: 1
  Number of patients experiencing serious TEAE(s): Hypoglycaemic seizure: 0
  Number of patients experiencing serious TEAE(s): Hypoglycaemic unconsciousness: 0
  Number of patients experiencing serious TEAE(s): Intervertebral disc protrusion: 1
  Number of patients experiencing serious TEAE(s): Kaposi’s sarcoma: 1
  Number of patients experiencing serious TEAE(s): Meniscus injury: 1
  Number of patients experiencing serious TEAE(s): Myocardial infarction: 0
  Number of patients experiencing serious TEAE(s): Non-cardiac chest pain: 2
  Number of patients experiencing serious TEAE(s): Osteoarthritis: 0
  Number of patients experiencing serious TEAE(s): Osteomyelitis: 1
  Number of patients experiencing serious TEAE(s): Pneumonia: 1
  Number of patients experiencing serious TEAE(s): Renal impairment: 1
  Number of patients experiencing serious TEAE(s): Scar: 0
  Number of patients experiencing serious TEAE(s): Squamous cell carcinoma of the tongue: 0
  Number of patients experiencing serious TEAE(s): Subdural haematoma: 0
  Number of patients experiencing serious TEAE(s): Supraventricular tachycardia: 0
  Number of patients experiencing serious TEAE(s): Tendonitis: 0
  Number of patients experiencing serious TEAE(s): Wound infection: 1
Patients with T2DM [1]; SOC
  % of patients experiencing TEAE(s) leading to permanent treatment discontinuation: Cardiac disorders: (0.3%)
  % of patients experiencing TEAE(s) leading to permanent treatment discontinuation: Neoplasms benign, malignant and unspecified (incl cysts and polyps): (0.3%)
  % of patients experiencing TEAE(s) leading to permanent treatment discontinuation: Pregnancy, puerperium and perinatal conditions: (0.3%)
  % of patients experiencing serious TEAE(s): Cardiac disorders: (0.5%)
  % of patients experiencing serious TEAE(s): Eye disorders: (0.3%)
  % of patients experiencing serious TEAE(s): General disorders and administration site conditions: (0.8%)
  % of patients experiencing serious TEAE(s): Hepatobiliary disorders: (0.3%)
  % of patients experiencing serious TEAE(s): Infections and infestations: (0.8%)
  % of patients experiencing serious TEAE(s): Injury, poisoning and procedural complications: (0.3%)
  % of patients experiencing serious TEAE(s): Metabolism and nutrition disorders: (0.3%)
  % of patients experiencing serious TEAE(s): Musculoskeletal and connective tissue disorders: (0.3%)
  % of patients experiencing serious TEAE(s): Neoplasms benign, malignant and unspecified (incl cysts and polyps): (0.5%)
  % of patients experiencing serious TEAE(s): Renal and urinary disorders: (0.3%)
  % of patients experiencing serious TEAE(s): Reproductive system and breast disorders: (0.3%)
  % of patients experiencing serious TEAE(s): Vascular disorders: (0.3%)
  Number of patients experiencing TEAE(s) leading to permanent treatment discontinuation: Cardiac disorders: 1
  Number of patients experiencing TEAE(s) leading to permanent treatment discontinuation: Gastrointestinal disorders: 0
  Number of patients experiencing TEAE(s) leading to permanent treatment discontinuation: Infections and infestations: 0
  Number of patients experiencing TEAE(s) leading to permanent treatment discontinuation: Investigations: 0
  Number of patients experiencing TEAE(s) leading to permanent treatment discontinuation: Neoplasms benign, malignant and unspecified (incl cysts and polyps): 1
  Number of patients experiencing TEAE(s) leading to permanent treatment discontinuation: Nervous system disorders: 0
  Number of patients experiencing TEAE(s) leading to permanent treatment discontinuation: Pregnancy, puerperium and perinatal conditions: 1
  Number of patients experiencing serious TEAE(s): Cardiac disorders: 2
  Number of patients experiencing serious TEAE(s): Eye disorders: 1
  Number of patients experiencing serious TEAE(s): General disorders and administration site conditions: 3
  Number of patients experiencing serious TEAE(s): Hepatobiliary disorders: 1
  Number of patients experiencing serious TEAE(s): Infections and infestations: 3
  Number of patients experiencing serious TEAE(s): Injury, poisoning and procedural complications: 1
  Number of patients experiencing serious TEAE(s): Metabolism and nutrition disorders: 1
  Number of patients experiencing serious TEAE(s): Musculoskeletal and connective tissue disorders: 1
  Number of patients experiencing serious TEAE(s): Neoplasms benign, malignant and unspecified (incl cysts and polyps): 2
  Number of patients experiencing serious TEAE(s): Nervous system disorders: 0
  Number of patients experiencing serious TEAE(s): Renal and urinary disorders: 1
  Number of patients experiencing serious TEAE(s): Reproductive system and breast disorders: 1
  Number of patients experiencing serious TEAE(s): Vascular disorders: 1
Patients with T2DM [1]
  % of patients experiencing TEAE(s) leading to permanent treatment discontinuation: Any TEAE leading to permanent treatment discontinuation: (0.8%)
  % of patients experiencing serious TEAE(s): Any serious TEAE: (4.9%)
  Number of patients experiencing TEAE(s) leading to permanent treatment discontinuation: Any TEAE leading to permanent treatment discontinuation: 3
  Number of patients experiencing serious TEAE(s): Any serious TEAE: 18
  Patients with any TEAE, number: 191 n
  Patients with any TEAE, percentage: (52.3%)
Patients with T2DM [2]; Example 3
  Documented symptomatic hypoglycemia event rate per patient-year: 4.22 per patient-year
  Patients with at least one event of documented (PG ≤70 mg/dL) symptomatic hypoglycemia: 42.5%
  Severe symptomatic hypoglycemia, % of patients: 0.3%
  Severe symptomatic hypoglycemia, number of events: 1 events
  Severe symptomatic hypoglycemia, number of patients: 1 patients
Patients with T2DM [2]; [3]
  Probable symptomatic hypoglycaemia: Number of events: 29
  Probable symptomatic hypoglycaemia: Number of events per patient year: 0.14
  Probable symptomatic hypoglycaemia: Number of patients with events per patient year: 0.10
  Probable symptomatic hypoglycaemia: patients with events, %: (5.5%)
  Severe symptomatic hypoglycaemia: Number of events: 1
  Severe symptomatic hypoglycaemia: Number of events per patient year: <0.01
  Severe symptomatic hypoglycaemia: Number of patients with events per patient year: <0.01
  Severe symptomatic hypoglycaemia: patients with events, %: (0.3%)
  Symptomatic hypoglycemia: Number of events: 910
  Symptomatic hypoglycemia: Number of events per patient year: 4.36
  Symptomatic hypoglycemia: Number of patients with events per patient year: 0.77
  Symptomatic hypoglycemia: patients with events, %: (44.1%)
Patients with T2DM [2]; [4]
  Documented symptomatic hypoglycaemia: Number of events: 235
  Documented symptomatic hypoglycaemia: Number of events per patient year: 1.13
  Documented symptomatic hypoglycaemia: Number of patients with events per patient year: 0.40
  Documented symptomatic hypoglycaemia: patients with events, %: (22.7%)
Patients with T2DM [2]; [5]
  Documented symptomatic hypoglycaemia: Number of events: 880
  Documented symptomatic hypoglycaemia: Number of events per patient year: 4.22
  Documented symptomatic hypoglycaemia: Number of patients with events per patient year: 0.74
  Documented symptomatic hypoglycaemia: patients with events, %: (42.5%)
